Assay results as given in patent publication US6403765B1, “Truncated Apaf-1 and methods of use thereof” (Thomas Jefferson University, priority 1998, dated 2002).

Biological target: T1, T7-tagged Apaf-530 (Homo sapiens, UniProt O14727)
T1 construct: expressed in transfected cells; host or cells: 293 cells
T1 sequence (O14727 1-530 isoform O14727-3): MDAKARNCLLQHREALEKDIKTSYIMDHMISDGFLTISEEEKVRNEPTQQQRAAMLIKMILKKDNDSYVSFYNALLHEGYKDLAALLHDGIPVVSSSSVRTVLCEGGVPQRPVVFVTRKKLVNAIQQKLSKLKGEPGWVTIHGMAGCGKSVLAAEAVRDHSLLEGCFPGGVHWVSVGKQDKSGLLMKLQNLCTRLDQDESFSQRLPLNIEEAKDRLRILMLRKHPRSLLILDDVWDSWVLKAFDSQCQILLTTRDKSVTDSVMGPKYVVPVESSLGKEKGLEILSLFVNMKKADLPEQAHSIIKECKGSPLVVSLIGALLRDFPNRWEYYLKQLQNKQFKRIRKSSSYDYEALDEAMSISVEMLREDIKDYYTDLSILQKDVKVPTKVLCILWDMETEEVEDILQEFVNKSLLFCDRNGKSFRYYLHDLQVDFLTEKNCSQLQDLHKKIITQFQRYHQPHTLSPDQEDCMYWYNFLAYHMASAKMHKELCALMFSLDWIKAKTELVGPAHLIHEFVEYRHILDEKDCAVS
Assay: Co-immunoprecipitation of Flag-tagged Apaf-1 variants with T7-tagged Apaf-530 in 293 cells
Format: binding
Settings: anti-Flag immunoprecipitation, anti-T7 blot, 36 hours, FIG. 11
Method: The ability of APAF-530 to oligomerize pro-caspase-9 was tested. Co-transfection experiments in 293 cells were performed with T7-tagged Apaf-530 and different Flag-tagged Apaf-1 variants, and cell lysates were prepared and immunoprecipitated with an anti-Flag antibody. The immunoprecipitates were analyzed by Western blotting with an anti-T7 antibody.
In FIG. 11, 293 cells were co-transfected with constructs encoding T7-tagged Apaf-530 and an empty vector (lane 1) or constructs encoding Flag-tagged Apaf-1 (lane 2), Flag-tagged Apaf-530 (lane 3), Flag-tagged Apaf-530ΔCARD (lane 4) or Flag-tagged Apaf-97 (lane 5). After 36 hours, extracts were prepared and immunoprecipitated with a monoclonal antibody to the Flag epitope. The immunoprecipitates (upper panel) were analyzed by SDS-PAGE and immunoblotted with a horseradish peroxides-conjugated T7 antibody. The corresponding cellular extracts were also analyzed by SDS-PAGE and immunoblotted with a horseradish peroxides-conjugated T7 antibody (middle panel) or an anti-Flag antibody (lower panel).

B1: Apaf-530: truncated Apaf-1 (residues 1-530) lacking its WD-40 repeats, recombinant (protein, UniProt O14727 1-530, looked up, fragment)
chain: MDAKARNCLLQHREALEKDIKTSYIMDHMISDGFLTISEEEKVRNEPTQQQRAAMLIKMILKKDNDSYVSFYNALLHEGYKDLAALLHDGIPVVSSSSGKDSVSGITSYVRTVLCEGGVPQRPVVFVTRKKLVNAIQQKLSKLKGEPGWVTIHGMAGCGKSVLAAEAVRDHSLLEGCFPGGVHWVSVGKQDKSGLLMKLQNLCTRLDQDESFSQRLPLNIEEAKDRLRILMLRKHPRSLLILDDVWDSWVLKAFDSQCQILLTTRDKSVTDSVMGPKYVVPVESSLGKEKGLEILSLFVNMKKADLPEQAHSIIKECKGSPLVVSLIGALLRDFPNRWEYYLKQLQNKQFKRIRKSSSYDYEALDEAMSISVEMLREDIKDYYTDLSILQKDVKVPTKVLCILWDMETEEVEDILQEFVNKSLLFCDRNGKSFRYYLHDLQVDFLTEKNCSQLQDLHKKIITQFQRYHQPHTLSPDQEDCMYWYNFLAYHMASAKMHKELCALMFSLDWIKAKTELVGPAHLIHEFVEYR
co-immunoprecipitation with T7-Apaf-530: co-immunoprecipitated
